The labels stand for the following.
B1: H183/L072 VL L33Y (antibody, name in Kabat numbering, V domains shown)
VH: QVQLVESGGGLVQPGRSLRLSCAASGFTFSNAWMHWVRQAPGKGLEWVAQIKDKGNAYAAYYAPSVKGRFTISRDDSKNSIYLQMNSLKTEDTAVYYCHYVHYASASTVLPAFGVDAWGQGTTVTVSS
VL: DIVMTQSPLSLPVTPGEPASISCQASQELVHMNRNTYYHWYQQKPGQAPRLLIYKVSNRFPGVPDRFSGSGSGTDFTLKISRVEAEDVGVYYCAQGTSVPFTFGQGTKLEIK
B2: H183/L072 VL Q90L (antibody, name in Kabat numbering, V domains shown)
VH: QVQLVESGGGLVQPGRSLRLSCAASGFTFSNAWMHWVRQAPGKGLEWVAQIKDKGNAYAAYYAPSVKGRFTISRDDSKNSIYLQMNSLKTEDTAVYYCHYVHYASASTVLPAFGVDAWGQGTTVTVSS
VL: DIVMTQSPLSLPVTPGEPASISCQASQELVHMNRNTYLHWYQQKPGQAPRLLIYKVSNRFPGVPDRFSGSGSGTDFTLKISRVEAEDVGVYYCALGTSVPFTFGQGTKLEIK
B3: H183/L072 VL F96I (antibody, name in Kabat numbering, V domains shown)
VH: QVQLVESGGGLVQPGRSLRLSCAASGFTFSNAWMHWVRQAPGKGLEWVAQIKDKGNAYAAYYAPSVKGRFTISRDDSKNSIYLQMNSLKTEDTAVYYCHYVHYASASTVLPAFGVDAWGQGTTVTVSS
VL: DIVMTQSPLSLPVTPGEPASISCQASQELVHMNRNTYLHWYQQKPGQAPRLLIYKVSNRFPGVPDRFSGSGSGTDFTLKISRVEAEDVGVYYCAQGTSVPITFGQGTKLEIK
B4: H183/L072 VL Q90A (antibody, name in Kabat numbering, V domains shown)
VH: QVQLVESGGGLVQPGRSLRLSCAASGFTFSNAWMHWVRQAPGKGLEWVAQIKDKGNAYAAYYAPSVKGRFTISRDDSKNSIYLQMNSLKTEDTAVYYCHYVHYASASTVLPAFGVDAWGQGTTVTVSS
VL: DIVMTQSPLSLPVTPGEPASISCQASQELVHMNRNTYLHWYQQKPGQAPRLLIYKVSNRFPGVPDRFSGSGSGTDFTLKISRVEAEDVGVYYCAAGTSVPFTFGQGTKLEIK
B5: H183/L072 VL F96L (antibody, name in Kabat numbering, V domains shown)
VH: QVQLVESGGGLVQPGRSLRLSCAASGFTFSNAWMHWVRQAPGKGLEWVAQIKDKGNAYAAYYAPSVKGRFTISRDDSKNSIYLQMNSLKTEDTAVYYCHYVHYASASTVLPAFGVDAWGQGTTVTVSS
VL: DIVMTQSPLSLPVTPGEPASISCQASQELVHMNRNTYLHWYQQKPGQAPRLLIYKVSNRFPGVPDRFSGSGSGTDFTLKISRVEAEDVGVYYCAQGTSVPLTFGQGTKLEIK
B6: H183/L072 VL Q90I (antibody, name in Kabat numbering, V domains shown)
VH: QVQLVESGGGLVQPGRSLRLSCAASGFTFSNAWMHWVRQAPGKGLEWVAQIKDKGNAYAAYYAPSVKGRFTISRDDSKNSIYLQMNSLKTEDTAVYYCHYVHYASASTVLPAFGVDAWGQGTTVTVSS
VL: DIVMTQSPLSLPVTPGEPASISCQASQELVHMNRNTYLHWYQQKPGQAPRLLIYKVSNRFPGVPDRFSGSGSGTDFTLKISRVEAEDVGVYYCAIGTSVPFTFGQGTKLEIK
B7: H183/L072 VL A89L (antibody, name in Kabat numbering, V domains shown)
VH: QVQLVESGGGLVQPGRSLRLSCAASGFTFSNAWMHWVRQAPGKGLEWVAQIKDKGNAYAAYYAPSVKGRFTISRDDSKNSIYLQMNSLKTEDTAVYYCHYVHYASASTVLPAFGVDAWGQGTTVTVSS
VL: DIVMTQSPLSLPVTPGEPASISCQASQELVHMNRNTYLHWYQQKPGQAPRLLIYKVSNRFPGVPDRFSGSGSGTDFTLKISRVEAEDVGVYYCLQGTSVPFTFGQGTKLEIK
B8: H183/L072 VL T92I (antibody, name in Kabat numbering, V domains shown)
VH: QVQLVESGGGLVQPGRSLRLSCAASGFTFSNAWMHWVRQAPGKGLEWVAQIKDKGNAYAAYYAPSVKGRFTISRDDSKNSIYLQMNSLKTEDTAVYYCHYVHYASASTVLPAFGVDAWGQGTTVTVSS
VL: DIVMTQSPLSLPVTPGEPASISCQASQELVHMNRNTYLHWYQQKPGQAPRLLIYKVSNRFPGVPDRFSGSGSGTDFTLKISRVEAEDVGVYYCAQGISVPFTFGQGTKLEIK
B9: H183/L072 VL K50A (antibody, name in Kabat numbering, V domains shown)
VH: QVQLVESGGGLVQPGRSLRLSCAASGFTFSNAWMHWVRQAPGKGLEWVAQIKDKGNAYAAYYAPSVKGRFTISRDDSKNSIYLQMNSLKTEDTAVYYCHYVHYASASTVLPAFGVDAWGQGTTVTVSS
VL: DIVMTQSPLSLPVTPGEPASISCQASQELVHMNRNTYLHWYQQKPGQAPRLLIYAVSNRFPGVPDRFSGSGSGTDFTLKISRVEAEDVGVYYCAQGTSVPFTFGQGTKLEIK
B10: H183/L072 VL K50L (antibody, name in Kabat numbering, V domains shown)
VH: QVQLVESGGGLVQPGRSLRLSCAASGFTFSNAWMHWVRQAPGKGLEWVAQIKDKGNAYAAYYAPSVKGRFTISRDDSKNSIYLQMNSLKTEDTAVYYCHYVHYASASTVLPAFGVDAWGQGTTVTVSS
VL: DIVMTQSPLSLPVTPGEPASISCQASQELVHMNRNTYLHWYQQKPGQAPRLLIYLVSNRFPGVPDRFSGSGSGTDFTLKISRVEAEDVGVYYCAQGTSVPFTFGQGTKLEIK
B11: H183/L072 VL P95L (antibody, name in Kabat numbering, V domains shown)
VH: QVQLVESGGGLVQPGRSLRLSCAASGFTFSNAWMHWVRQAPGKGLEWVAQIKDKGNAYAAYYAPSVKGRFTISRDDSKNSIYLQMNSLKTEDTAVYYCHYVHYASASTVLPAFGVDAWGQGTTVTVSS
VL: DIVMTQSPLSLPVTPGEPASISCQASQELVHMNRNTYLHWYQQKPGQAPRLLIYKVSNRFPGVPDRFSGSGSGTDFTLKISRVEAEDVGVYYCAQGTSVLFTFGQGTKLEIK
B12: H183/L072 VL G91A (antibody, name in Kabat numbering, V domains shown)
VH: QVQLVESGGGLVQPGRSLRLSCAASGFTFSNAWMHWVRQAPGKGLEWVAQIKDKGNAYAAYYAPSVKGRFTISRDDSKNSIYLQMNSLKTEDTAVYYCHYVHYASASTVLPAFGVDAWGQGTTVTVSS
VL: DIVMTQSPLSLPVTPGEPASISCQASQELVHMNRNTYLHWYQQKPGQAPRLLIYKVSNRFPGVPDRFSGSGSGTDFTLKISRVEAEDVGVYYCAQATSVPFTFGQGTKLEIK
B13: H183/L072 VL G91L (antibody, name in Kabat numbering, V domains shown)
VH: QVQLVESGGGLVQPGRSLRLSCAASGFTFSNAWMHWVRQAPGKGLEWVAQIKDKGNAYAAYYAPSVKGRFTISRDDSKNSIYLQMNSLKTEDTAVYYCHYVHYASASTVLPAFGVDAWGQGTTVTVSS
VL: DIVMTQSPLSLPVTPGEPASISCQASQELVHMNRNTYLHWYQQKPGQAPRLLIYKVSNRFPGVPDRFSGSGSGTDFTLKISRVEAEDVGVYYCAQLTSVPFTFGQGTKLEIK
B14: H183/L072 VL K50I (antibody, name in Kabat numbering, V domains shown)
VH: QVQLVESGGGLVQPGRSLRLSCAASGFTFSNAWMHWVRQAPGKGLEWVAQIKDKGNAYAAYYAPSVKGRFTISRDDSKNSIYLQMNSLKTEDTAVYYCHYVHYASASTVLPAFGVDAWGQGTTVTVSS
VL: DIVMTQSPLSLPVTPGEPASISCQASQELVHMNRNTYLHWYQQKPGQAPRLLIYIVSNRFPGVPDRFSGSGSGTDFTLKISRVEAEDVGVYYCAQGTSVPFTFGQGTKLEIK
B15: H183/L072 VL P95I (antibody, name in Kabat numbering, V domains shown)
VH: QVQLVESGGGLVQPGRSLRLSCAASGFTFSNAWMHWVRQAPGKGLEWVAQIKDKGNAYAAYYAPSVKGRFTISRDDSKNSIYLQMNSLKTEDTAVYYCHYVHYASASTVLPAFGVDAWGQGTTVTVSS
VL: DIVMTQSPLSLPVTPGEPASISCQASQELVHMNRNTYLHWYQQKPGQAPRLLIYKVSNRFPGVPDRFSGSGSGTDFTLKISRVEAEDVGVYYCAQGTSVIFTFGQGTKLEIK
B16: H183/L072 VL P95A (antibody, name in Kabat numbering, V domains shown)
VH: QVQLVESGGGLVQPGRSLRLSCAASGFTFSNAWMHWVRQAPGKGLEWVAQIKDKGNAYAAYYAPSVKGRFTISRDDSKNSIYLQMNSLKTEDTAVYYCHYVHYASASTVLPAFGVDAWGQGTTVTVSS
VL: DIVMTQSPLSLPVTPGEPASISCQASQELVHMNRNTYLHWYQQKPGQAPRLLIYKVSNRFPGVPDRFSGSGSGTDFTLKISRVEAEDVGVYYCAQGTSVAFTFGQGTKLEIK
B17: H183/L072 VL F96A (antibody, name in Kabat numbering, V domains shown)
VH: QVQLVESGGGLVQPGRSLRLSCAASGFTFSNAWMHWVRQAPGKGLEWVAQIKDKGNAYAAYYAPSVKGRFTISRDDSKNSIYLQMNSLKTEDTAVYYCHYVHYASASTVLPAFGVDAWGQGTTVTVSS
VL: DIVMTQSPLSLPVTPGEPASISCQASQELVHMNRNTYLHWYQQKPGQAPRLLIYKVSNRFPGVPDRFSGSGSGTDFTLKISRVEAEDVGVYYCAQGTSVPATFGQGTKLEIK
B18: H183/L072 VL G91I (antibody, name in Kabat numbering, V domains shown)
VH: QVQLVESGGGLVQPGRSLRLSCAASGFTFSNAWMHWVRQAPGKGLEWVAQIKDKGNAYAAYYAPSVKGRFTISRDDSKNSIYLQMNSLKTEDTAVYYCHYVHYASASTVLPAFGVDAWGQGTTVTVSS
VL: DIVMTQSPLSLPVTPGEPASISCQASQELVHMNRNTYLHWYQQKPGQAPRLLIYKVSNRFPGVPDRFSGSGSGTDFTLKISRVEAEDVGVYYCAQITSVPFTFGQGTKLEIK
B19: H183/L072 VL A89I (antibody, name in Kabat numbering, V domains shown)
VH: QVQLVESGGGLVQPGRSLRLSCAASGFTFSNAWMHWVRQAPGKGLEWVAQIKDKGNAYAAYYAPSVKGRFTISRDDSKNSIYLQMNSLKTEDTAVYYCHYVHYASASTVLPAFGVDAWGQGTTVTVSS
VL: DIVMTQSPLSLPVTPGEPASISCQASQELVHMNRNTYLHWYQQKPGQAPRLLIYKVSNRFPGVPDRFSGSGSGTDFTLKISRVEAEDVGVYYCIQGTSVPFTFGQGTKLEIK
B20: H183/L072 VL N53I (antibody, name in Kabat numbering, V domains shown)
VH: QVQLVESGGGLVQPGRSLRLSCAASGFTFSNAWMHWVRQAPGKGLEWVAQIKDKGNAYAAYYAPSVKGRFTISRDDSKNSIYLQMNSLKTEDTAVYYCHYVHYASASTVLPAFGVDAWGQGTTVTVSS
VL: DIVMTQSPLSLPVTPGEPASISCQASQELVHMNRNTYLHWYQQKPGQAPRLLIYKVSIRFPGVPDRFSGSGSGTDFTLKISRVEAEDVGVYYCAQGTSVPFTFGQGTKLEIK

Consider 20 molecules from patent publication US20210388087A1.

The assay deals with Human CD3eg linker (human). Kind of assay: SPR; fold vs parent H183/L072. Background: In SPR one partner is held on a chip, and binding of the other changes the refractive index at the surface.
Sequence of Human CD3eg linker (human) (chain, as listed by the source limits assumed): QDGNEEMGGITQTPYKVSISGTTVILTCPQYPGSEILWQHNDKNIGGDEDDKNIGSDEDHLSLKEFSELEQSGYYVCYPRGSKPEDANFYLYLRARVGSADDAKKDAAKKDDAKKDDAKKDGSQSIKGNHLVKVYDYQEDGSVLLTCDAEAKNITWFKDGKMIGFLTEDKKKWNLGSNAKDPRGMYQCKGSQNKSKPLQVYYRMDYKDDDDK
Regarding B1, the fold change of affinity is 0 fold.

Take B2: the fold change of affinity stood at 0 fold.

As to B3, the fold change of affinity worked out at 0 fold.

On to B4, for which the fold change of affinity is 0 fold.

For the molecule B5, the fold change of affinity was determined as 0 fold.

As to B6, the fold change of affinity stood at 0 fold.

In the case of B7, the fold change of affinity is 0 fold.

B8: the fold change of affinity came to 0 fold.

B9: the fold change of affinity is 0 fold.

Turning to B10, the fold change of affinity was 0 fold.

Consider B11, for which the fold change of affinity was determined as 0 fold.

Turning to B12, the fold change of affinity came to 0 fold.

For B13, the fold change of affinity was 0 fold.

For the molecule B14, the fold change of affinity came out at 0 fold.

On to B15, for which the fold change of affinity was determined as 0 fold.

As to B16, the fold change of affinity is 0 fold.

B17: the fold change of affinity turned out to be 0 fold.

As to B18, the fold change of affinity stood at 0 fold.

As for B19, the fold change of affinity was determined as 0 fold.

In the case of B20, the fold change of affinity was 0 fold.
